The results in this text go back to article PMC11200690 (Antibodies, 2024).

This experiment concerns the target T1, recombinant human HER2 ECD protein (Homo sapiens, UniProt P04626).
T1 construct: human epidermal growth factor receptor-2 (HER2, Erbb2), extracellular domain; also called HER2 antigen; Erbb2; source: bought: SinoBiological (10004-H08H)
Briefly: BLI; scFv formats against HER2 ECD; set-up not told (Figure S2). As to conditions: both partners purified.

B1: Ab8 scFv (scFv, V domains shown)
VH: QVQLGESGGGVVRPGGSLRLSCAASGFTFSSYAMSWVRQAPGKGLEWVSAISGSGGSTYYADSVKGRFTISRENAKNSLYLQMNSLRAEDTAVYYCARRGGVWAFDIWGQGTMVTVSS
VL: DVVMTQSPLSLPVTPGEPASISCRSSQSLLHSNGINYLDWYLQKPGQSPQLLIYLGSSRASGVPDRFSGSGSGTDFTLKISRVEAEDVGVYFCMQALQTPLTFGQGTKLEIK
notes: as the VH of m1; as the VL of m1; also called scFv Ab8; ScFv of Ab8; source: HB2151 cells (pComb3x plasmid), purified (Ni-NTA); not shown: Flag, C-terminal, kept
Regarding B1, the Kd was found to be 9 nM.
